The values below come from patent US20100015129A1.

Experiment [1] addresses latent TGF-β1 released by human OA cartilage explants (human) (UniProt P01137). Description: cell-based or functional assay.
The target in experiment [2] is integrin αvβ3 on chick embryo sternal chondrocytes (chick) (UniProt P26008). Description: cell-based or functional assay.
Chain of integrin αvβ3 on chick embryo sternal chondrocytes (chick) (P26008 20-1034): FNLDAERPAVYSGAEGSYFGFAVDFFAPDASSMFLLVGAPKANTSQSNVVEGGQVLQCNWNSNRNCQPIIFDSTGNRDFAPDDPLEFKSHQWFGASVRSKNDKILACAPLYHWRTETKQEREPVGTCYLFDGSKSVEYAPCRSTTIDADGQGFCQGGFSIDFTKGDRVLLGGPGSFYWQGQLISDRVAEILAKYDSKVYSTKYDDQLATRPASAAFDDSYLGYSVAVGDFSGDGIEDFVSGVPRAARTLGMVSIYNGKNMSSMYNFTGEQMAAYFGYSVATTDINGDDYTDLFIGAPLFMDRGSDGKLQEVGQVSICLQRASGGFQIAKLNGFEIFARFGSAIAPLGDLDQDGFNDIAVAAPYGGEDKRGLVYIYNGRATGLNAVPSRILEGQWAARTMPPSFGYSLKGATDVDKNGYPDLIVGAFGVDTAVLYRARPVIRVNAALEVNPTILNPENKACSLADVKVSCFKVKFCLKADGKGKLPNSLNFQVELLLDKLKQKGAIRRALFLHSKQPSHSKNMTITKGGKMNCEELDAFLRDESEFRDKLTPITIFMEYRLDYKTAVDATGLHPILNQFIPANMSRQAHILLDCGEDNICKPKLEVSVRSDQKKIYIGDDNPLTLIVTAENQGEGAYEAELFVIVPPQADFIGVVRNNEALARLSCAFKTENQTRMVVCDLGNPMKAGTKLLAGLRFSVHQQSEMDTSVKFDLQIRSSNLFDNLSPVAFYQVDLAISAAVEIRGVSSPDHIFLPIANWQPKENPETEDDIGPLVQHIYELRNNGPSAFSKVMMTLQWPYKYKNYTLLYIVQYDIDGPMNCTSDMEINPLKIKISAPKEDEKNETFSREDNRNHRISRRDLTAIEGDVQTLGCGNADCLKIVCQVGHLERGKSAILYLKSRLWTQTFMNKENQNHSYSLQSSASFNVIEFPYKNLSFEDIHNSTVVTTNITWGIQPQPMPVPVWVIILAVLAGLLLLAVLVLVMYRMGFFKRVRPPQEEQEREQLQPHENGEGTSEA

Chain of latent TGF-β1 released by human OA cartilage explants (human) (P01137 30-390 limits assumed): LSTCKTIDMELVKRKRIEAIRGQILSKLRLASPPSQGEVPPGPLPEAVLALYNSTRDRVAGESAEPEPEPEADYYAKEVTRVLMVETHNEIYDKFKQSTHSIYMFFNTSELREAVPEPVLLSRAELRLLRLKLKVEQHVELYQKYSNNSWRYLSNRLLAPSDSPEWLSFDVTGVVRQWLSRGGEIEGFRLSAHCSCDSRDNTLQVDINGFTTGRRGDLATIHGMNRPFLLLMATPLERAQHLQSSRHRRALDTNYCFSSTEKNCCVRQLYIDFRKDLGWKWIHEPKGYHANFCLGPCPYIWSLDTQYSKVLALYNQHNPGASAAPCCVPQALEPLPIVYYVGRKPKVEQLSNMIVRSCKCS

As for “recombinant human F-spondin (R&D systems) (from UniProt Q9HCB6 29-807) (ligand)”, in experiment [1], the active TGF-β1 in OA cartilage explant supernatants (ELISA) worked out at 225% and the active TGF-β1 in OA cartilage explant supernatants (ELISA) (pg/g cartilage) came to 550.
Regarding “LM609, integrin αvβ3 blocking antibody (Chemicon International, Cat No MAB1976Z)”, in experiment [2], the decrease in AP activity of F-spondin transfected, RA stimulated chick chondrocytes was determined as 50%.
